Consider two molecules from article PMC9719539 (Nature Communications, 2022).

Non-standard residues stand in square brackets, D forms with d.

Test [1] concerns the target T1, integrin α5β1 ectodomain (soluble) (human, UniProt P08648;P05556).
T1 construct: human integrin α5 ectodomain; N-terminal secretion peptide and HRV3C digestion site in the construct; human integrin β1 ectodomain; source: Expi293F, transiently transfected, purified from culture supernatant (Ni-NTA, size-exclusion chromatography)
The test can be described thus: fluorescence polarisation; competition with 10 nM FITC-cyclic-… binding to soluble integrin ectodomains in solution (50 nM α5β1, 200 nM αVβ1, 20 nM αVβ3, 20 nM αVβ5); global three-parameter dose-response fit. Particulars: both partners purified. On the technique in general: In fluorescence polarisation assays a small probe gives low polarisation when free and higher when bound to something large.

The target in test [2] is T2, integrin αVβ3 ectodomain (soluble) (human, UniProt P06756;P05106).
T2 construct: human integrin αV ectodomain; N-terminal secretion peptide and HRV3C digestion site in the construct; human integrin β3 ectodomain; source: Expi293F, transiently transfected, purified from culture supernatant (Ni-NTA, size-exclusion chromatography)
Described as above. Particulars: both partners purified.

For test [3], the target named is T3, integrin α5β1, intact, on wild type K562 cells (human (endogenous in K562), UniProt P08648;P05556).
T3 construct: integrin α5 subunit, natively expressed on K562 cells; integrin β1 subunit, natively expressed on K562 cells; also called K562 WT (α5β1); K562 WT; source: endogenous, on wild type K562 cells
Kind of test: flow cytometry on cells; intact integrins on K562 cells in L15 medium with 1% BSA and 1 mM Mn2+, no washing; titrator's binding read as enhancement of binding of AF647-9EG7 Fab (10 nM); EC50 of a three-parameter dose-response fit taken as Kd. Particulars: one partner purified.

Test [4] deals with T4, integrin αVβ1, intact, on K562 αVβ1 stable transfectants (human, UniProt P06756;P05556).
T4 construct: integrin αV subunit; integrin β1 subunit; the cells also express native α5β1, whose share the legend calls negligible
The description is as above. The note with it: one partner purified.

In test [5] the target is T3, integrin α5β1, intact, on wild type …. The test can be described thus: flow cytometry on cells; intact integrins on K562 cells in L15 medium with 1% BSA, without Mn2+, no washing; titrator's binding read as enhancement of binding of fluorescent 9EG7 Fab (10 nM); EC50 of a three-parameter dose-response fit taken as Kd. Particulars: one partner purified. A general note: In flow cytometry, cells or beads pass a laser one at a time.

The target in test [6] is T4, integrin αVβ1, intact, on K562 αVβ1 …. The test is described as above. Particulars: one partner purified.
For test [7], the target named is T5, integrin α5β1 ectodomain (soluble) (human, UniProt P08648 42-995; P05556 21-728).
T5 construct: human integrin α5 ectodomain; N-terminal secretion peptide and HRV3C digestion site in the construct; human integrin β1 ectodomain; source: Expi293F, transiently transfected, purified from culture supernatant (Ni-NTA, size-exclusion chromatography)
The test can be described thus: fluorescence polarisation; competition with 10 nM FITC-cyclic-… binding to soluble integrin ectodomains in solution (50 nM α5β1, 200 nM αVβ1, 20 nM αVβ3, 20 nM αVβ5); global three-parameter dose-response fit. Particulars: both partners purified.

The target of test [8] is T6, integrin α5β1, intact, on wild type K562 cells (human (endogenous in K562), UniProt P08648 42-1049; P05556 21-798).
T6 construct: integrin α5 subunit, natively expressed on K562 cells; integrin β1 subunit, natively expressed on K562 cells; also called K562 WT (α5β1); K562 WT; source: endogenous, on wild type K562 cells
The test can be described thus: flow cytometry on cells; intact integrins on K562 cells in L15 medium with 1% BSA and 1 mM Mn2+, no washing; titrator's binding read as enhancement of binding of AF647-9EG7 Fab (10 nM); EC50 of a three-parameter dose-response fit taken as Kd. The note with it: one partner purified.

Test [9] has as its target T6, integrin α5β1, intact, on wild type …. Kind of test: flow cytometry on cells; intact integrins on K562 cells in L15 medium with 1% BSA, without Mn2+, no washing; titrator's binding read as enhancement of binding of fluorescent 9EG7 Fab (10 nM); EC50 of a three-parameter dose-response fit taken as Kd. The note with it: one partner purified.

T4 sequence (P06756 31-1048, chain 1 of 2): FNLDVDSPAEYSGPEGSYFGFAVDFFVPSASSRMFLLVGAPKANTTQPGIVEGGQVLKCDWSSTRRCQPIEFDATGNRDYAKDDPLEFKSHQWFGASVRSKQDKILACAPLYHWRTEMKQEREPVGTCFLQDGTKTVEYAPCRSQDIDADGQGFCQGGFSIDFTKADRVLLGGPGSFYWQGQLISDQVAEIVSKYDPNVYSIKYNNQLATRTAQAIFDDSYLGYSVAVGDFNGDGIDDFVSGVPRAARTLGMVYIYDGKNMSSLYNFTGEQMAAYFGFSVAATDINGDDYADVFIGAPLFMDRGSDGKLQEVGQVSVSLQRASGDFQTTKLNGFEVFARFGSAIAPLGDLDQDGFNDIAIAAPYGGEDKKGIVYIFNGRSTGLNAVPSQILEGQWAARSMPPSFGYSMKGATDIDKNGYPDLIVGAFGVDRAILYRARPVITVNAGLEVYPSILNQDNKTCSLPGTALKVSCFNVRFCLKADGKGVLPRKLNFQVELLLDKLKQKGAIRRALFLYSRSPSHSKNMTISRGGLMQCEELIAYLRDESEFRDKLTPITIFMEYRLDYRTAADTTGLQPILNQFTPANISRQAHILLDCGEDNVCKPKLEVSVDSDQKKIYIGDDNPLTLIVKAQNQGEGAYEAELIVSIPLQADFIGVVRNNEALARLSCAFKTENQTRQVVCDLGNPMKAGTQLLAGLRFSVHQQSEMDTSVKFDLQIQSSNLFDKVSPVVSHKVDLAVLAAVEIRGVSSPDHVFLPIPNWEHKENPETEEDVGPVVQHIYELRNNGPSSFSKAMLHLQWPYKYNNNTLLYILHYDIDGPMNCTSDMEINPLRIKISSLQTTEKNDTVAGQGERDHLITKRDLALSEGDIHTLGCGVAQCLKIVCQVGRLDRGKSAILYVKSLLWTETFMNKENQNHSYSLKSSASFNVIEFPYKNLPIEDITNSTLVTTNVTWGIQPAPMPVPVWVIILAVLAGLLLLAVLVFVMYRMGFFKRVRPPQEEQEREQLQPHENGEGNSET
T4 sequence (P05556 21-798, chain 2 of 2): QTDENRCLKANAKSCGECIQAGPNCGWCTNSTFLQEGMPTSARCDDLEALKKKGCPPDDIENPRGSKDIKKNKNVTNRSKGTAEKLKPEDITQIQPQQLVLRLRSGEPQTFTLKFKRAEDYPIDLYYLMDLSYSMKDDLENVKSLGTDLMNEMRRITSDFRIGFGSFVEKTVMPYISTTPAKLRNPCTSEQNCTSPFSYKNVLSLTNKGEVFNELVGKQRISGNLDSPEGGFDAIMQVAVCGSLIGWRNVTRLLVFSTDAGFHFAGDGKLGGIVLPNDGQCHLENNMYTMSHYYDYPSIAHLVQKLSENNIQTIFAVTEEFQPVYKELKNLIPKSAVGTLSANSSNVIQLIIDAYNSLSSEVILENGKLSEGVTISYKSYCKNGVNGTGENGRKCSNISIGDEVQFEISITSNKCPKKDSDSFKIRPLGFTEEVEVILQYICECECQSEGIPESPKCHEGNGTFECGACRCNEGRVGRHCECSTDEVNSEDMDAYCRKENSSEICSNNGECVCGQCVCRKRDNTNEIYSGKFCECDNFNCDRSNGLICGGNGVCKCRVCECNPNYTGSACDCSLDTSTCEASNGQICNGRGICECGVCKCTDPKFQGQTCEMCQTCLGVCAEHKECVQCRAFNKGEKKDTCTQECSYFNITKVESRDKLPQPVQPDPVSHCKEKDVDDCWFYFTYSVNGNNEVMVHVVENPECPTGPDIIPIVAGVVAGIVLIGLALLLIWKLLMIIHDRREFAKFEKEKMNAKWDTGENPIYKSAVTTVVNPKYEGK
T3 sequence (P08648 42-1049, chain 1 of 2): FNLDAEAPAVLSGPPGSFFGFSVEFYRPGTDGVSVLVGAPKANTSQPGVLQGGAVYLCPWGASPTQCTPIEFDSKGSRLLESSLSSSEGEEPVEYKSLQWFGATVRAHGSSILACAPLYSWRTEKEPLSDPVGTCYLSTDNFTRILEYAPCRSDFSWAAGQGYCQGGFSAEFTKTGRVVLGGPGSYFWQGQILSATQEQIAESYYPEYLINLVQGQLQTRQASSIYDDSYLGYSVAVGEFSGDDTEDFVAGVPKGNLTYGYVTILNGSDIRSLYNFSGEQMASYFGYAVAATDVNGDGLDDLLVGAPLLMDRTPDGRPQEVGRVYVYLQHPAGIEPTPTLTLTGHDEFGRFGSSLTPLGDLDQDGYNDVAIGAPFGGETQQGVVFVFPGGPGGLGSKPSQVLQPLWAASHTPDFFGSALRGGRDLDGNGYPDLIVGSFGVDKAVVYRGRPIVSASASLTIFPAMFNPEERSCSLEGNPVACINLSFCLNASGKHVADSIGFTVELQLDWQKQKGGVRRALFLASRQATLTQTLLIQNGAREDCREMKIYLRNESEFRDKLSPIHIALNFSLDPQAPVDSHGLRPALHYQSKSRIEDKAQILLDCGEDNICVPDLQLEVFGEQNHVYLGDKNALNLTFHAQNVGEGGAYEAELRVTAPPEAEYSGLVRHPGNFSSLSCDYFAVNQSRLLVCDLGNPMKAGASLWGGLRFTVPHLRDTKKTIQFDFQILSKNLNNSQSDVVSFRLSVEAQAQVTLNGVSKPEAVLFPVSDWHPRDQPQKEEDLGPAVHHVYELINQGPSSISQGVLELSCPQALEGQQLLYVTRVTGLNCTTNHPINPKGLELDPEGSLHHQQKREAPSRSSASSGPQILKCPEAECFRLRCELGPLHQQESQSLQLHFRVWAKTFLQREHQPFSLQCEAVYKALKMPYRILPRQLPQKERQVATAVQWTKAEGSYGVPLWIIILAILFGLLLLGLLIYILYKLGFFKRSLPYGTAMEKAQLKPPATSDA
T3 sequence (P05556 21-798, chain 2 of 2): as the sequence (P05556 21-798, chain 2 of 2) above
T6 sequence (P08648 42-1049, chain 1 of 2): as the sequence (P08648 42-1049, chain 1 of 2) above
T6 sequence (P05556 21-798, chain 2 of 2): as the sequence (P05556 21-798, chain 2 of 2) above
T2 sequence (P06756 31-992, chain 1 of 2): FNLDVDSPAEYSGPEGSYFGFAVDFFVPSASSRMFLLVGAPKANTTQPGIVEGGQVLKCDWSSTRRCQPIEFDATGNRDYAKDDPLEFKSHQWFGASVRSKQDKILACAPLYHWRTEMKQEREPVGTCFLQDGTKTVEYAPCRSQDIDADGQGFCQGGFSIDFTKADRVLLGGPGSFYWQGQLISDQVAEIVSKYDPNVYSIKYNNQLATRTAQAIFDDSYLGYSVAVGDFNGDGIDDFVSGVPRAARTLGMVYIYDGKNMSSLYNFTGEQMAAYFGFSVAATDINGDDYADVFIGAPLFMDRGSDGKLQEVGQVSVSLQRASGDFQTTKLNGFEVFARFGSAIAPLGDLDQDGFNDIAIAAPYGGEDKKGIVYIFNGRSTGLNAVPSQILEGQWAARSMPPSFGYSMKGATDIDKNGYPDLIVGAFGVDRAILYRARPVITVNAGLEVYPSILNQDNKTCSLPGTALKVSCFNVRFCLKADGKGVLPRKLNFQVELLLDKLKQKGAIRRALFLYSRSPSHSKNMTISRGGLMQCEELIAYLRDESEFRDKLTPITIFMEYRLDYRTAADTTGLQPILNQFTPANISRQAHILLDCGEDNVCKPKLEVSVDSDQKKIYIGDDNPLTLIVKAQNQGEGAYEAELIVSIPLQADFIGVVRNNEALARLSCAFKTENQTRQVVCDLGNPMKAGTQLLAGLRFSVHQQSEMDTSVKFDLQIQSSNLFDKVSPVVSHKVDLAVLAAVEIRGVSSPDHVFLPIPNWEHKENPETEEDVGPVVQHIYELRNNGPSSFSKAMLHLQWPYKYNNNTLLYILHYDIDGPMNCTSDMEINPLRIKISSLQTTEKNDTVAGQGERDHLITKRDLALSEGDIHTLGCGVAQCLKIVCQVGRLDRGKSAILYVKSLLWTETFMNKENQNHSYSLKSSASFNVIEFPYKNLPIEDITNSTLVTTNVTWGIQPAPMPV
T2 sequence (P05106 27-718, chain 2 of 2): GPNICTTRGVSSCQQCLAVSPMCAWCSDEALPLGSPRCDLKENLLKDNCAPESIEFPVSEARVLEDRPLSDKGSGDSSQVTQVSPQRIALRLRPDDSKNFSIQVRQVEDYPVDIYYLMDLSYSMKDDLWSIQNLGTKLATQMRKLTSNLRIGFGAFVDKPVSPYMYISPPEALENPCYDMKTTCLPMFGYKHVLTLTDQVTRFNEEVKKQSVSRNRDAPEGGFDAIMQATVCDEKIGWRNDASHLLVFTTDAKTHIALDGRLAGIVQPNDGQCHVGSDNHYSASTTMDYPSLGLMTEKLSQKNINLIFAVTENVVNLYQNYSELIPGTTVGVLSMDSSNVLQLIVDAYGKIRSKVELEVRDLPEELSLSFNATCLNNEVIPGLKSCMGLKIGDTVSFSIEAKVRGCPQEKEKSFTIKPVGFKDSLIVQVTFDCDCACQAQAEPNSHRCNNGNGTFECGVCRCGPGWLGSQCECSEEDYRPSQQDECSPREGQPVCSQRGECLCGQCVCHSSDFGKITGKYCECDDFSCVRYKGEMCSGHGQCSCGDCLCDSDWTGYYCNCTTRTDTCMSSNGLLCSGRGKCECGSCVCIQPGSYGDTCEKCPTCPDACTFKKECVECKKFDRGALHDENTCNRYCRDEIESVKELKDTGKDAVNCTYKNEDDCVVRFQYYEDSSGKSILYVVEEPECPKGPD

B1: Biogen-αVβ1.5 Fab (Fab, V domains shown)
VH: EVQLVESGGGVVQPGRSLRLSCAASGFTFKYYGMHWVRQAPGKGLEWVASIWYDGSNKKYADSVKGRFTISRDNSKNTLYLQMNSLRAEDTAVYYCARGGPTRGDGTRVYYYGMDVWGQGTTVTVSS
VL: EIVMTQSPATLSVSPGERATLSCRASQSVSSNLAWYQQKPGQAPRLLIYSASTRATGIPARFSGSGSGTEFTLTISSLQSEDFAVYYCQQYYHHPFTFGGGTKVEIK
notes: heavy chain before CDR3; heavy-chain CDR3 (RGD motif highlighted); heavy chain after CDR3 up to the papain cut (IgG1); light chain; Expressed as IgG1 and cut to Fab with papain; also called Exemplary Antibody 5; anti-αVβ1; source: Expi293F, recombinantly expressed as IgG1; Fab generated with papain, purified (Hi-Trap Q)
As to B1, the IC50 in test [1] turned out to be 0.2 ± 0.1 µM; in test [2], 21 ± 3 µM. Besides, the Kd stood at 4.3 µM in [3], 0.0236 µM in test [4], 19 µM in test [5] and 0.117 µM in test [6].

B2: cRGDfK peptide, cyclo[Arg-Gly-Asp-D-Phe-Lys] (peptide)
peptide: cyclo(RGD[dF]K)
notes: cyclic pentapeptide, a cilengitide analog; f = D-Phe; Unlabelled soluble peptide used as titrator
Molecule B2 displayed an IC50 in test [7] of 1.2 ± 0.5 µM. The dissociation constant Kd amounted to 11 µM in [8] and 610 µM in test [9].

What is called IC50 is the concentration that inhibits the measured activity by half. Low readings indicate greater potency in that assay, high ones weaker potency in that assay. The Kd is a measure of binding affinity in units of concentration.
